Assay results published in article PMC12102759 (2025).

B1: TPTE2 peptide 92-107 (Phosphatidylinositol 3,4,5-trisphosphate 3-phosphatase TPTE2), 16-mer library wild type / TLN1 PTB (TLN1 Phosphotyrosine-binding (PTB) domain, residues 309-401) (parent complex)
chain 1: LADLIFTDSKLYIPLE
chain 2: GVSFFLVKEKMKGKNKLVPRLLGITKECVMRVDEKTKEVIQEWNLTNIKRWAASPKSFTLDFGDYQDGYYSVQTTEGEQIAQLIAGYIDIILK
B2: AMOTL2 peptide 66-81 (Angiomotin-like protein 2), 16-mer library wild type / TNKS ANK (TNKS 12 ANK repeats, residues 174-649) (parent complex)
chain 1: LQQATRQEPQGQEHQG
chain 2: TGVPAVSGALRELLEACRNGDVSRVKRLVDAANVNAKDMAGRKSSPLHFAAGFGRKDVVEHLLQMGANVHARDDGGLIPLHNACSFGHAEVVSLLLCQGADPNARDNWNYTPLHEAAIKGKIDVCIVLLQHGADPNIRNTDGKSALDLADPSAKAVLTGEYKKDELLEAARSGNEEKLMALLTPLNVNCHASDGRKSTPLHLAAGYNRVRIVQLLLQHGADVHAKDKGGLVPLHNACSYGHYEVTELLLKHGACVNAMDLWQFTPLHEAASKNRVEVCSLLLSHGADPTLVNCHGKSAVDMAPTPELRERLTYEFKGHSLLQAAREADLAKVKKTLALEIINFKQPQSHETALHCAVASLHPKRKQVTELLLRKGANVNEKNKDFMTPLHVAAERAHNDVMEVLHKHGAKMNALDTLGQTALHRAALAGHLQTCRLLLSYGSDPSIISLQGFTAAQMGNEAVQQILSESTPIRTSD

Variants of: B1
Test: proteomic peptide phage display deep mutational scan (ProP-PD DMS): M13 P8 16-mer library selected against immobilised GST-tagged bait for four days (rounds), NGS of the eluted pools per day and pseudo-replica; bait immobilised on MaxiSorp plates (10 µg), library pre-cleared on GST, 2 h binding at 4 °C, five washes; one round per day, days 1-4; value from days 2 and 3

**Q.** chain 1 LADFIFTDSKLYIPLE [chain 1 L4F] was tested. Which screen value did it give?
**A.** 0.000915 average fractional NGS count over selection days 2 and 3 (reads of this peptide / all reads for the bait, averaged over …

**Q.** For chain 1 LATLIFTDSKLYIPLE [chain 1 D3T], which screen value is on record?
**A.** 0.00148 average fractional NGS count over selection days 2 and 3 (reads of this peptide / all reads for the bait, averaged over …

**Q.** chain 1 LADLIFTDSKLYTPLE [chain 1 I13T] was tested. Which screen value did it give?
**A.** 0.000348 average fractional NGS count over selection days 2 and 3 (reads of this peptide / all reads for the bait, averaged over …

**Q.** Which screen value does the source give for chain 1 LADTIFTDSKLYIPLE [chain 1 L4T] here?
**A.** 0.00113 average fractional NGS count over selection days 2 and 3 (reads of this peptide / all reads for the bait, averaged over …

**Q.** How did the screen value turn out when chain 1 LADLIFTDSHLYIPLE [chain 1 K10H] was run?
**A.** 0.00033 average fractional NGS count over selection days 2 and 3 (reads of this peptide / all reads for the bait, averaged over …

**Q.** With chain 1 LPDLIFTDSKLYIPLE [chain 1 A2P] as the variant, how does the screen value read?
**A.** 0.000416 average fractional NGS count over selection days 2 and 3 (reads of this peptide / all reads for the bait, averaged over …

**Q.** For chain 1 LADLMFTDSKLYIPLE [chain 1 I5M], which screen value is on record?
**A.** 0.000604 average fractional NGS count over selection days 2 and 3 (reads of this peptide / all reads for the bait, averaged over …

**Q.** How did the screen value turn out when chain 1 LADLIFTASKLYIPLE [chain 1 D8A] was run?
**A.** 0.000152 average fractional NGS count over selection days 2 and 3 (reads of this peptide / all reads for the bait, averaged over …

**Q.** How did the screen value turn out when chain 1 LADYIFTDSKLYIPLE [chain 1 L4Y] was run?
**A.** 0.00693 average fractional NGS count over selection days 2 and 3 (reads of this peptide / all reads for the bait, averaged over …

**Q.** Which screen value does the source give for chain 1 LADIIFTDSKLYIPLE [chain 1 L4I] here?
**A.** 0.00221 average fractional NGS count over selection days 2 and 3 (reads of this peptide / all reads for the bait, averaged over …

**Q.** With chain 1 LADLPFTDSKLYIPLE [chain 1 I5P] as the variant, how does the screen value read?
**A.** 0.000122 average fractional NGS count over selection days 2 and 3 (reads of this peptide / all reads for the bait, averaged over …

**Q.** Which screen value does the source give for chain 1 LHDLIFTDSKLYIPLE [chain 1 A2H] here?
**A.** 0.00143 average fractional NGS count over selection days 2 and 3 (reads of this peptide / all reads for the bait, averaged over …

**Q.** For chain 1 LEDLIFTDSKLYIPLE [chain 1 A2E], which screen value is on record?
**A.** 0.000377 average fractional NGS count over selection days 2 and 3 (reads of this peptide / all reads for the bait, averaged over …

**Q.** For chain 1 LADVIFTDSKLYIPLE [chain 1 L4V], which screen value is on record?
**A.** 0.0013 average fractional NGS count over selection days 2 and 3 (reads of this peptide / all reads for the bait, averaged over …

**Q.** For chain 1 LADLIFTDSKLYIPFE [chain 1 L15F], which screen value is on record?
**A.** 0.000576 average fractional NGS count over selection days 2 and 3 (reads of this peptide / all reads for the bait, averaged over …

**Q.** Which screen value does the source give for chain 1 LANLIFTDSKLYIPLE [chain 1 D3N] here?
**A.** 0.000465 average fractional NGS count over selection days 2 and 3 (reads of this peptide / all reads for the bait, averaged over …

**Q.** chain 1 LADLIFTDNKLYIPLE [chain 1 S9N] was tested. Which screen value did it give?
**A.** 0.00167 average fractional NGS count over selection days 2 and 3 (reads of this peptide / all reads for the bait, averaged over …

**Q.** Which screen value does the source give for chain 1 LADLIFTDSKLYIPHE [chain 1 L15H] here?
**A.** 0.00102 average fractional NGS count over selection days 2 and 3 (reads of this peptide / all reads for the bait, averaged over …

**Q.** For chain 1 LADLIFTDSKLYVPLE [chain 1 I13V], which screen value is on record?
**A.** 0.00758 average fractional NGS count over selection days 2 and 3 (reads of this peptide / all reads for the bait, averaged over …

**Q.** For chain 1 LADLIFTDSKLYIPKE [chain 1 L15K], which screen value is on record?
**A.** 0.000159 average fractional NGS count over selection days 2 and 3 (reads of this peptide / all reads for the bait, averaged over …

**Q.** With chain 1 LADLIFYDSKLYIPLE [chain 1 T7Y] as the variant, how does the screen value read?
**A.** 0.000282 average fractional NGS count over selection days 2 and 3 (reads of this peptide / all reads for the bait, averaged over …

**Q.** chain 1 LAPLIFTDSKLYIPLE [chain 1 D3P] was tested. Which screen value did it give?
**A.** 0.000181 average fractional NGS count over selection days 2 and 3 (reads of this peptide / all reads for the bait, averaged over …

Variants of: B2
Test: as above

**Q.** How did the screen value turn out when chain 1 LQQATRQEPQGQEKQG [chain 1 H14K] was run?
**A.** 0.00043 average fractional NGS count over selection days 2 and 3 (reads of this peptide / all reads for the bait, averaged over …

**Q.** For chain 1 LQQATRQEPQGQEHFG [chain 1 Q15F], which screen value is on record?
**A.** 0.000668 average fractional NGS count over selection days 2 and 3 (reads of this peptide / all reads for the bait, averaged over …

**Q.** Which screen value does the source give for chain 1 LQQATRQEPQGQNHQG [chain 1 E13N] here?
**A.** 0.000173 average fractional NGS count over selection days 2 and 3 (reads of this peptide / all reads for the bait, averaged over …

**Q.** chain 1 LQQATRQGPQGQEHQG [chain 1 E8G] was tested. Which screen value did it give?
**A.** 0.000387 average fractional NGS count over selection days 2 and 3 (reads of this peptide / all reads for the bait, averaged over …

**Q.** Which screen value does the source give for chain 1 LQQLTRQEPQGQEHQG [chain 1 A4L] here?
**A.** 0.00111 average fractional NGS count over selection days 2 and 3 (reads of this peptide / all reads for the bait, averaged over …

**Q.** For chain 1 LQQPTRQEPQGQEHQG [chain 1 A4P], which screen value is on record?
**A.** 0.00156 average fractional NGS count over selection days 2 and 3 (reads of this peptide / all reads for the bait, averaged over …

**Q.** How did the screen value turn out when chain 1 AQQATRQEPQGQEHQG [chain 1 L1A] was run?
**A.** 0.00444 average fractional NGS count over selection days 2 and 3 (reads of this peptide / all reads for the bait, averaged over …

**Q.** For chain 1 LQQANRQEPQGQEHQG [chain 1 T5N], which screen value is on record?
**A.** 0.000716 average fractional NGS count over selection days 2 and 3 (reads of this peptide / all reads for the bait, averaged over …

**Q.** How did the screen value turn out when chain 1 LEQATRQEPQGQEHQG [chain 1 Q2E] was run?
**A.** 0.00238 average fractional NGS count over selection days 2 and 3 (reads of this peptide / all reads for the bait, averaged over …

**Q.** How did the screen value turn out when chain 1 LQQATRQEPQGQEHDG [chain 1 Q15D] was run?
**A.** 0.000198 average fractional NGS count over selection days 2 and 3 (reads of this peptide / all reads for the bait, averaged over …

**Q.** With chain 1 LQQATRQHPQGQEHQG [chain 1 E8H] as the variant, how does the screen value read?
**A.** 0.000322 average fractional NGS count over selection days 2 and 3 (reads of this peptide / all reads for the bait, averaged over …

**Q.** chain 1 LQQATRQEPNGQEHQG [chain 1 Q10N] was tested. Which screen value did it give?
**A.** 0.000239 average fractional NGS count over selection days 2 and 3 (reads of this peptide / all reads for the bait, averaged over …

**Q.** With chain 1 LQQATRQEPQGQEHHG [chain 1 Q15H] as the variant, how does the screen value read?
**A.** 0.00187 average fractional NGS count over selection days 2 and 3 (reads of this peptide / all reads for the bait, averaged over …

**Q.** Which screen value does the source give for chain 1 LMQATRQEPQGQEHQG [chain 1 Q2M] here?
**A.** 0.000757 average fractional NGS count over selection days 2 and 3 (reads of this peptide / all reads for the bait, averaged over …

**Q.** chain 1 NQQATRQEPQGQEHQG [chain 1 L1N] was tested. Which screen value did it give?
**A.** 0.000133 average fractional NGS count over selection days 2 and 3 (reads of this peptide / all reads for the bait, averaged over …

**Q.** With chain 1 LQQATRWEPQGQEHQG [chain 1 Q7W] as the variant, how does the screen value read?
**A.** 0.000185 average fractional NGS count over selection days 2 and 3 (reads of this peptide / all reads for the bait, averaged over …

**Q.** With chain 1 SQQATRQEPQGQEHQG [chain 1 L1S] as the variant, how does the screen value read?
**A.** 0.000161 average fractional NGS count over selection days 2 and 3 (reads of this peptide / all reads for the bait, averaged over …

**Q.** chain 1 LQQATRQEAQGQEHQG [chain 1 P9A] was tested. Which screen value did it give?
**A.** 0.000163 average fractional NGS count over selection days 2 and 3 (reads of this peptide / all reads for the bait, averaged over …

**Q.** chain 1 LQQATRQEPQGQENQG [chain 1 H14N] was tested. Which screen value did it give?
**A.** 0.000168 average fractional NGS count over selection days 2 and 3 (reads of this peptide / all reads for the bait, averaged over …

**Q.** How did the screen value turn out when chain 1 LQQATRQSPQGQEHQG [chain 1 E8S] was run?
**A.** 0.000226 average fractional NGS count over selection days 2 and 3 (reads of this peptide / all reads for the bait, averaged over …

**Q.** chain 1 LQDATRQEPQGQEHQG [chain 1 Q3D] was tested. Which screen value did it give?
**A.** 0.000274 average fractional NGS count over selection days 2 and 3 (reads of this peptide / all reads for the bait, averaged over …

**Q.** How did the screen value turn out when chain 1 LNQATRQEPQGQEHQG [chain 1 Q2N] was run?
**A.** 0.000675 average fractional NGS count over selection days 2 and 3 (reads of this peptide / all reads for the bait, averaged over …

**Q.** Which screen value does the source give for chain 1 LQQATRQEPQGQEQQG [chain 1 H14Q] here?
**A.** 0.000459 average fractional NGS count over selection days 2 and 3 (reads of this peptide / all reads for the bait, averaged over …

**Q.** Which screen value does the source give for chain 1 LQNATRQEPQGQEHQG [chain 1 Q3N] here?
**A.** 0.000319 average fractional NGS count over selection days 2 and 3 (reads of this peptide / all reads for the bait, averaged over …

**Q.** How did the screen value turn out when chain 1 LQQATRQEPQGAEHQG [chain 1 Q12A] was run?
**A.** 0.000321 average fractional NGS count over selection days 2 and 3 (reads of this peptide / all reads for the bait, averaged over …

**Q.** With chain 1 LQQATRQEPQGQEHYG [chain 1 Q15Y] as the variant, how does the screen value read?
**A.** 0.00994 average fractional NGS count over selection days 2 and 3 (reads of this peptide / all reads for the bait, averaged over …

**Q.** For chain 1 LQQATRQEPQGQHHQG [chain 1 E13H], which screen value is on record?
**A.** 0.000694 average fractional NGS count over selection days 2 and 3 (reads of this peptide / all reads for the bait, averaged over …

**Q.** How did the screen value turn out when chain 1 LQQRTRQEPQGQEHQG [chain 1 A4R] was run?
**A.** 0.000178 average fractional NGS count over selection days 2 and 3 (reads of this peptide / all reads for the bait, averaged over …

**Q.** With chain 1 LQQATRQEPQGQEHSG [chain 1 Q15S] as the variant, how does the screen value read?
**A.** 0.00112 average fractional NGS count over selection days 2 and 3 (reads of this peptide / all reads for the bait, averaged over …

**Q.** For chain 1 LQQATRQEPQGQERQG [chain 1 H14R], which screen value is on record?
**A.** 0.00174 average fractional NGS count over selection days 2 and 3 (reads of this peptide / all reads for the bait, averaged over …

**Q.** How did the screen value turn out when chain 1 LTQATRQEPQGQEHQG [chain 1 Q2T] was run?
**A.** 0.00025 average fractional NGS count over selection days 2 and 3 (reads of this peptide / all reads for the bait, averaged over …

**Q.** For chain 1 LQQATRQEPQTQEHQG [chain 1 G11T], which screen value is on record?
**A.** 0.000177 average fractional NGS count over selection days 2 and 3 (reads of this peptide / all reads for the bait, averaged over …

**Q.** chain 1 LQQATRQEPSGQEHQG [chain 1 Q10S] was tested. Which screen value did it give?
**A.** 0.000273 average fractional NGS count over selection days 2 and 3 (reads of this peptide / all reads for the bait, averaged over …

**Q.** chain 1 LQQQTRQEPQGQEHQG [chain 1 A4Q] was tested. Which screen value did it give?
**A.** 0.00114 average fractional NGS count over selection days 2 and 3 (reads of this peptide / all reads for the bait, averaged over …
